Assay results published in paper PMC5356841.

Experiments:
[1] = target: individual catalytic domain of human MT2-MMP (human)
[2] = target: individual catalytic domain of human MT3-MMP (human)
[3] = target: individual catalytic domain of human MT4-MMP (human)
[4] = target: individual catalytic domain of human MT5-MMP (human)
[5] = target: individual catalytic domain of human MT6-MMP (human)
individual catalytic domain of human MT6-MMP (human), sequence (Q9NPA2 22-562): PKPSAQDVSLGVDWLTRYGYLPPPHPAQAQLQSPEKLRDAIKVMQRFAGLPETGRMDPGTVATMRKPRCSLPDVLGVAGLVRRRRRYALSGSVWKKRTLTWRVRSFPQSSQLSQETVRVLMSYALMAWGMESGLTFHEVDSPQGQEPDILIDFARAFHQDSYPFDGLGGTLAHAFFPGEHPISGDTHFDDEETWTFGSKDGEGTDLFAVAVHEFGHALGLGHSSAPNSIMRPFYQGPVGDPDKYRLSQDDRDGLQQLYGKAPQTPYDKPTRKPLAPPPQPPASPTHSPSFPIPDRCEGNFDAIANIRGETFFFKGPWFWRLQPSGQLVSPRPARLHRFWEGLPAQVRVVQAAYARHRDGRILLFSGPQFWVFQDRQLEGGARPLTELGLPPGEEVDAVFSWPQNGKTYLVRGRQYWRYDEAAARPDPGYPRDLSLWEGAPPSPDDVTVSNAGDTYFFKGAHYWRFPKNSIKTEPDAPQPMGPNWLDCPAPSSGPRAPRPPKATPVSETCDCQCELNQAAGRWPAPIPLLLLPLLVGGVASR

individual catalytic domain of human MT5-MMP (human), sequence (Q9Y5R2 53-645): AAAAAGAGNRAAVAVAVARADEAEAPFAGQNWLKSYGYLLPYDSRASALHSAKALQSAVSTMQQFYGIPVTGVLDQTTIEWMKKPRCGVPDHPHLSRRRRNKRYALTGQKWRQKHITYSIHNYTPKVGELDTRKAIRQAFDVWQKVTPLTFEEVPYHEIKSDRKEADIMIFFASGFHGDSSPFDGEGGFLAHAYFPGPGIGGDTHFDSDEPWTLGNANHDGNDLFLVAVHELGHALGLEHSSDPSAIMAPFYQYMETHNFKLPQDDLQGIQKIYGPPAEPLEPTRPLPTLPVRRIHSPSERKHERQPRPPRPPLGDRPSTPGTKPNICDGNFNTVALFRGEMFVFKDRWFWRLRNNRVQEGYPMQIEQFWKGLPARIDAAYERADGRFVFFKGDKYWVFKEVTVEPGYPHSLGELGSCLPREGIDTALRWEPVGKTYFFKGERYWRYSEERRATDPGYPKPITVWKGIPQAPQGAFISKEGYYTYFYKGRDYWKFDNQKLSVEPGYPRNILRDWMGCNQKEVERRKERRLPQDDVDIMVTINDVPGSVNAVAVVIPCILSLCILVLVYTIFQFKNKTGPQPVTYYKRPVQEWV
individual catalytic domain of human MT4-MMP (human), sequence (Q9ULZ9 36-603): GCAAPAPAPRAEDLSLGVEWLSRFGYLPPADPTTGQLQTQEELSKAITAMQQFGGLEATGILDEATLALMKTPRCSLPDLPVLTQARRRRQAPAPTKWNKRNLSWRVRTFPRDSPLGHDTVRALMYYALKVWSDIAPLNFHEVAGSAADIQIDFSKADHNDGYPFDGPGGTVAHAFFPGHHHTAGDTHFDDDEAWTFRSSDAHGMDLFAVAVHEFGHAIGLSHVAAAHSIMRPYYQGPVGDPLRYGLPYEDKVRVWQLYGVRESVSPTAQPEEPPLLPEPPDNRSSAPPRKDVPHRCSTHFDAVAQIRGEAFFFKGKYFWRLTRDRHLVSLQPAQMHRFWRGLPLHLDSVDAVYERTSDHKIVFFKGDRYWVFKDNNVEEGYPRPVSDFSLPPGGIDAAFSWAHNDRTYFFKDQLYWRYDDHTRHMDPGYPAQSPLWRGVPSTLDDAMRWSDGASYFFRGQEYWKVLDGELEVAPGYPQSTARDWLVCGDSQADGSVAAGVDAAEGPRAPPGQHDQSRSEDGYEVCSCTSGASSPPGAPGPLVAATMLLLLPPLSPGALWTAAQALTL
individual catalytic domain of human MT2-MMP (human), sequence (P51511 42-669): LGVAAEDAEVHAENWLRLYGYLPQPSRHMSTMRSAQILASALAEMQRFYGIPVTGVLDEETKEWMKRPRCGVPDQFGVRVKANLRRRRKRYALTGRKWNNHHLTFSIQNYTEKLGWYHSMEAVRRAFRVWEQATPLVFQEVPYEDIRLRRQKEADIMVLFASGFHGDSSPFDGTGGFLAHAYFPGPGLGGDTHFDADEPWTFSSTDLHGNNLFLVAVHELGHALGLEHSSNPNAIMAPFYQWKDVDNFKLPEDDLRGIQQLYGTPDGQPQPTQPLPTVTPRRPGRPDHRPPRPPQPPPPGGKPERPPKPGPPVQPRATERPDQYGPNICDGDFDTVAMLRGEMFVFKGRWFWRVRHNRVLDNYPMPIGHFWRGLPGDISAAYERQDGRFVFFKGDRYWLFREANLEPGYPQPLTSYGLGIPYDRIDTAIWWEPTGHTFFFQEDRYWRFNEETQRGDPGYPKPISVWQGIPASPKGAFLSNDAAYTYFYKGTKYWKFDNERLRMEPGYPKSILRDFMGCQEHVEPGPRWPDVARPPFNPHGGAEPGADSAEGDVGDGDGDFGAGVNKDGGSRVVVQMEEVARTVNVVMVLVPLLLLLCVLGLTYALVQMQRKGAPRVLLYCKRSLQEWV
individual catalytic domain of human MT3-MMP (human), sequence (P51512 32-607): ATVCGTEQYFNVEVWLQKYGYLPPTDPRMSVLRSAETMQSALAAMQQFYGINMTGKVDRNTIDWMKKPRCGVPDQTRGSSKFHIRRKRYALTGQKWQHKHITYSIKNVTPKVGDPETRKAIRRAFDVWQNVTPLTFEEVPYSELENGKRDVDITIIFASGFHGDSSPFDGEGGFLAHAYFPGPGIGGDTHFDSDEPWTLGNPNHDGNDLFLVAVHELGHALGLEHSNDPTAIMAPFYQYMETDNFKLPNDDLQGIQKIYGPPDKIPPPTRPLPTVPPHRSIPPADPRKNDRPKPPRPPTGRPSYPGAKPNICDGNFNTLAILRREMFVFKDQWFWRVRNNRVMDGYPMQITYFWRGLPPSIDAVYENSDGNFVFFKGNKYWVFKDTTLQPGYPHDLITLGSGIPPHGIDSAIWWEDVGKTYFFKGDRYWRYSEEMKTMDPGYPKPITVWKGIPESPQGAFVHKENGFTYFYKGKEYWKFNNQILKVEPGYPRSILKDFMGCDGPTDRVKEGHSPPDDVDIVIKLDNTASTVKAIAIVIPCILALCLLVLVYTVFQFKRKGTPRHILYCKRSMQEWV

- IC50 of inhibition of the CAT of MT2-MMP (5 nM), cleavage of Mca-PLGL-Dpa-AR-NH2 (1 uM); 3A2 Fab 0-5,000 nM [1]: 1800 nM
- IC50 of inhibition of the CAT of MT3-MMP (5 nM), cleavage of Mca-PLGL-Dpa-AR-NH2 (1 uM); 3A2 Fab 0-5,000 nM [2]: 335 nM
- IC50 of inhibition of the CAT of MT4-MMP (5 nM), cleavage of Mca-PLGL-Dpa-AR-NH2 (1 uM); 3A2 Fab 0-5,000 nM [3]: > 5000 nM
- IC50 of inhibition of the CAT of MT5-MMP (5 nM), cleavage of Mca-PLGL-Dpa-AR-NH2 (1 uM); 3A2 Fab 0-5,000 nM [4]: 425 nM
- IC50 of inhibition of the CAT of MT6-MMP (5 nM), cleavage of Mca-PLGL-Dpa-AR-NH2 (1 uM); 3A2 Fab 0-5,000 nM [5]: > 5000 nM
B1: 3A2 Fab (Fab, V domains shown)
VH: EVQLVESGGGLVQPGGSLRLSCAASGFNLSSSSMHWVRQAPGKGLEWVASIYPSYSYTYYADSVKGRFTISADTSKNTAYLQMNSLRAEDTAVYYCARVKLQKDKSHQWIRNLVATPYGRYVMDYWGQGTLVTVSS
VL: DIQMTQSPSSLSASVGDRVTITCRASQSVSSAVAWYQQKPGKAPKLLIYSASSLYSGVPSRFSGSRSGTDFTLTISSLQPEDFATYYCQQYGYPITFGQGTKVEIK
